{
  "source": "patent US20140017242A1",
  "about": "“ANTI-BRADYKININ B2 RECEPTOR (BKB2R) MONOCLONAL ANTIBODY” (Diamedica, Inc., priority 2010, published 2014)",
  "molecules": {"B1": {"name": "5F12G1: murine monoclonal anti-BKB2R antibody (IgG2b,κ), VH comprising SEQ ID NO:1, VL comprising SEQ ID NO:2 (antibody, listed as Mus musculus, V domains shown)", "VH": "EVKLEESGGGLVQPGGSMKLSCVVSGFTFSDYWMSWVRHSPEMGLEWVAEIRLKSDNYATHYAESVKGRFTISRDDSKSRLYLQINSLRGEDTGIYYCTRDYYAMEYWGQGTSVTVSS", "VL": "DVVMTQTPLSLPVSLGDQASISCRSSQTIVHSNGKTYLEWYLQKPGQSPKLLIYKVSNRFSGVPDRFSGSGSGTEFTLKISRVETEDLGVYYCFQASHVPYTFGGGTKLEIK"}},
  "key": {"[1]": {"molecular_target": "T1, human BKB2R-derived epitope peptide, SE ID NO:73 (Homo sapiens, UniProt P30411)", "T1 construct": "purchased Biosyn, Lewisville, Tex", "assay": "ForteBio Octet binding kinetics to the BKB2R epitope peptide", "outline": "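Antibodies were titrated kinetically on a ForteBio Octet label-free biolayer interferometry platform against the human BKB2R epitope peptide (SEQ ID NO:73), compared with the parent mouse monoclonal. Streptavidin biosensors coated with biotinylated peptide at 50 μg/ml were equilibrated in kinetic buffer, then underwent 500 s association in antibody dilutions and 500 s dissociation in buffer.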"}, "ZDF fa/fa rats": {"test_system": "ZDF fa/fa rats", "assay": "21-day ZDF fa/fa study: glycated hemoglobin HbA1c", "format": "in vivo, rat", "details": "day 21", "experimental": "Animals. Male ZDF fa/fa rats were obtained from CRL (Kingston, N.Y.). Upon arrival, rats were seven weeks of age. The rats were housed individually per cage in a room with a photo cycle of 12 hours of light and 12 hours of dark and an ambient temperature of 70-72° F. and fed on regular rodent diet and water ad libitum. At the age of eleven weeks, rats were divided into six groups (Table 5) of eight rats per group based on fasting blood glucose levels. A sub-group of four rats per group was maintained in parallel to the main groups and was dosed similarly for twenty-one days for a hyperinsulinemic-euglycemic clamp study. […]\nAn oral glucose tolerance test (OGTT) was performed on Day 0, 7, 14 and 21 for each group of the study. Plasma samples were collected at each time point during OGTT to also measure insulin levels. Body weight, food and water intake were measured twice a week. Blood pressure and heart rates were monitored on Day 0, 7, 14 and 21 using a non-invasive tail cuff method (with five readings per rat taken and then averaged). Fasting serum samples were collected on Day 0, 7, 14 and 21 before OGTT for determination of triglyceride and total cholesterol level. Urine samples were collected on Day 7 and 14 for the determination of glycosuria. Glycated (Glycosylated) hemoglobin (HbA1c) was measured at the end of the study. Assay kits for these studies were as presented in Table 6, and were used according to the suppliers' instructions.\nThe mean change in fasting blood glucose (mg/dL), serum cholesterol (mg/dL) and systolic blood pressure (mm Hg) from baseline ([…]) and negative control (MG2b-57, 0.2 mg/kg) groups using an analysis of covariance to adjust for baseline levels. […] A significance level of a=0.05 was used for all tests, and all analyses were conducted using SAS statistical software (vs. 9.2, Cary, N.C., U.S.A.)."}},
  "data": [
    {"molecule": "B1", "values": [
      {"measurement": "Max Response", "setting": "[1]; Conc. 833 nM", "value": 0.0265},
      {"measurement": "kdis", "setting": "[1]; Conc. 833 nM", "value": 0.00109, "unit": "s⁻¹"},
      {"measurement": "kon", "setting": "[1]; Conc. 833 nM", "value": 2350, "unit": "M⁻¹ s⁻¹"},
      {"measurement": "Max Response", "setting": "[1]; Conc. 1000 nM", "value": 0.0385},
      {"measurement": "kdis", "setting": "[1]; Conc. 1000 nM", "value": 0.00109, "unit": "s⁻¹"},
      {"measurement": "kon", "setting": "[1]; Conc. 1000 nM", "value": 2350, "unit": "M⁻¹ s⁻¹"},
      {"measurement": "Max Response", "setting": "[1]; Conc. 1667 nM", "value": 0.0544},
      {"measurement": "kdis", "setting": "[1]; Conc. 1667 nM", "value": 0.00109, "unit": "s⁻¹"},
      {"measurement": "kon", "setting": "[1]; Conc. 1667 nM", "value": 2350, "unit": "M⁻¹ s⁻¹"},
      {"measurement": "Max Response", "setting": "[1]; Conc. 3333 nM", "value": 0.0757},
      {"measurement": "kdis", "setting": "[1]; Conc. 3333 nM", "value": 0.00109, "unit": "s⁻¹"},
      {"measurement": "kon", "setting": "[1]; Conc. 3333 nM", "value": 2350, "unit": "M⁻¹ s⁻¹"},
      {"measurement": "percent glycosylated hemoglobin A1c (HbA1c)", "setting": "ZDF fa/fa rats; 0.2 mg/kg s.c. every 3 days (high dose)", "value": "6.3+/−0.5%"},
      {"measurement": "difference in percent HbA1c between the high dose and negative control animals", "setting": "ZDF fa/fa rats; 0.2 mg/kg s.c. every 3 days vs MG2b-57 0.2 mg/kg", "value": "−2.58+/−0.85%"}
    ]}
  ]
}
